How the values were obtained:
[1] = target: T1, recombinant fragment of the d1 and d2 domains of human CD45 linked to an AviTag (Homo sapiens, biotin (site-specific, on the AviTag)); assay: ELISA; nanobodies coated on a plate, incubated with the indicated concentration of biotinylated CD45d1d2; colorimetric detection, absorbance at 450 nm; conditions: both partners purified
T1 construct: human CD45, extracellular domains d1 and d2; Glycosylated; Construct limits may be in the supplementary Methods; also called CD45d1d2; biotinylated human CD45 domains 1 and 2; source: Expi293F cells, purified
T1 chain: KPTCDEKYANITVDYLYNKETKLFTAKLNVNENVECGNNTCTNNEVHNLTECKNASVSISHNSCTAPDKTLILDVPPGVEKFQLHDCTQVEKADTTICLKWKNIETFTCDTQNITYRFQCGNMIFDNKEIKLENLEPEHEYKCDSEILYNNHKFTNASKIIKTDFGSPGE

[2] = target: T2, endogenous human CD45 at the cell-surface (Homo sapiens, UniProt P08575-4); assay: flow cytometry on cells; nanobodies incubated with YTS or NK92 cells (CD45+) or Expi293F cells (CD45-); detected with anti-VHH-Alexa Fluor 647; conditions: one partner purified
T2 construct: human CD45 as expressed on NK cell-lines and CD8+ T cells; also called endogenous CD45; source: endogenous, on YTS and NK92 cells and on primary human CD8+ T cells
T2 sequence (P08575 26-1306): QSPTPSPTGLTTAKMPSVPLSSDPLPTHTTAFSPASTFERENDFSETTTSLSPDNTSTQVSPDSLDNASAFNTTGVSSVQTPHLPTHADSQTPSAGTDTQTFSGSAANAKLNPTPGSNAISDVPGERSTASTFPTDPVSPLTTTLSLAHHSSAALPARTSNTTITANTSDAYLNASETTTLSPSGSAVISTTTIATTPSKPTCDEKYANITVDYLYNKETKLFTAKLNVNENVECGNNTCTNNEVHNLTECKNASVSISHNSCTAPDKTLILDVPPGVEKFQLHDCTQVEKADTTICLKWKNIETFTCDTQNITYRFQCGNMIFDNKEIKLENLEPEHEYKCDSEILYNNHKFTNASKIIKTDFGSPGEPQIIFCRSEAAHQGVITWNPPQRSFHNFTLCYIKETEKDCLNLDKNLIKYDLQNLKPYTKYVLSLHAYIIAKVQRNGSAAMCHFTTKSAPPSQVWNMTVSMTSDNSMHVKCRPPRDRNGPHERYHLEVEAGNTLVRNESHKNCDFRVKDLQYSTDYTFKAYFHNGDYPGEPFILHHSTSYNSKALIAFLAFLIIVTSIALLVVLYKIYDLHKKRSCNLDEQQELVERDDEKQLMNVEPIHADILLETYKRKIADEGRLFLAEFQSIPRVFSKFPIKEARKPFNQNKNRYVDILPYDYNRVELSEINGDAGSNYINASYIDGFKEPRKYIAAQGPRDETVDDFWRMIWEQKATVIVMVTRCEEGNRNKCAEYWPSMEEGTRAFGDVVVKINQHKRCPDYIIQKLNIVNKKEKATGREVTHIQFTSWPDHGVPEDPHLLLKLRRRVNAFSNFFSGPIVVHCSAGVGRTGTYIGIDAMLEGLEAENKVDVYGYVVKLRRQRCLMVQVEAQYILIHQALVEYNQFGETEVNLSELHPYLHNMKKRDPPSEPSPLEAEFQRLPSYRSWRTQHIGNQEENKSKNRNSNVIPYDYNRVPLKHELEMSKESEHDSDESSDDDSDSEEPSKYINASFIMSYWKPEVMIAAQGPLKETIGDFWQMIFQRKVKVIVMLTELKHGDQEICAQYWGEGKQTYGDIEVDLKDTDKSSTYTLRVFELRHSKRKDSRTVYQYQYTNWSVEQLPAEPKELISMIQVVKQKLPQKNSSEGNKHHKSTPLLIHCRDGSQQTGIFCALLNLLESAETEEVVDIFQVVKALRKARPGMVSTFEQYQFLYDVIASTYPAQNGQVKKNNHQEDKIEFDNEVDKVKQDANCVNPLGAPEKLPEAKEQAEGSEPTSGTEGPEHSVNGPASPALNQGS

B1: anti-CD45 nanobody 2H5 with C-terminal SpyTag003 (VHH)
VHH: QVQLQESGGGLVQTGGSLTLSCVASGGTFSSYAMGWFRQAPGKEREFVAAIGGSGDSTYYADSVKGRFTISRDNAKNSVYLQMNSLKPEDTAVYYCQADPTMFHKLYYGINPNEYDYWGQGTLVTVSS
notes: constructs are in the supplementary Methods; also called 2H5 nanobody
binding result [1]: binds | binding result [2]: binds

Reference: publication doi:10.1101/2025.06.14.659678, “NanoBondy reacting through NeissLock anhydride allows covalent immune cell decoration” (bioRxiv, 2025)
